Results from patent publication US9644019B2, “Compounds for treating cardiac damage after ischaemia/reperfusion” (priority 2010, dated 2017).

How the values were obtained:
[1] = molecular target: T1, EMMPRIN (Mus musculus, UniProt P18572); assay: AP-9 peptide / EMMPRIN co-localization in MAEC cells; type: binding; settings: DETA-NO 100 μM overnight, 0.08 mg/ml AP-9 peptide
T1 construct: Said cells were incubated overnight with the nitric oxide donor (DETA-NO) (100 μM) to induce EMMPRIN expression; endogenous in cells; host or cells: MAEC (mouse aortic endothelial cells), fixed with 4% PFA
T1 sequence (P18572 22-273 isoform P18572-2 limits assumed): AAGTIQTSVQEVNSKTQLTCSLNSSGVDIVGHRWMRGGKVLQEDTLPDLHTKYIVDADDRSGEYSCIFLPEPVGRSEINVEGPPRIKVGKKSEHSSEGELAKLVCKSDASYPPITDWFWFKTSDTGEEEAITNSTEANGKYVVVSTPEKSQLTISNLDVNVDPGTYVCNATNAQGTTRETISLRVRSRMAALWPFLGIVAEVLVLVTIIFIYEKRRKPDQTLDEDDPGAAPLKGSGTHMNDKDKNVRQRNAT
Procedure: The MAEC cells were incubated overnight with the nitric oxide donor (DETA-NO) (100 μM) to induce EMMPRIN expression (right panel). The MAEC cells without DETA-NO were used as a control (left panel). The MAEC cells were fixed with 4% PFA and incubated with 0.08 mg/ml of AP-9 peptide. EMMPRIN expression was detected using an anti-EMMPRIN antibody (1:1000), observing that both signals co-localize (right panel, top right square). The cores were stained with DAPI.
MAEC cells (mouse aortic endothelial cells) were used for the in vitro assays. Said cells were incubated overnight with the nitric oxide donor (DETA-NO) (100 μM) to induce EMMPRIN expression. The MAEC cells without DETA-NO were used as a control. The MAEC cells were fixed with 4% PFA and incubated with 0.08 mg/ml of AP-9 peptide. EMMPRIN expression was subsequently detected using an anti-EMMPRIN antibody (1:1000).

[2] = test system: EMMPRIN-induced MMP-9 expression; assay: EMMPRIN-induced MMP-9 expression in MAEC cells (anti-MMP-9 immunodetection); type: cell-based, mouse; settings: 100 μM DETA-NO, AP-9 peptide 0.08 mg/ml overnight, vs PBS
Procedure: MAEC cells were incubated with 100 μM of DETA-NO to induce EMMPRIN expression (B, D). MAEC cells without DETA-NO were used as a control (A, C). After 3 hours of treatment with DETA-NO, the MAEC cells were incubated overnight with AP-9 peptide (0.08 mg/ml) (C, D) or with PBS (A, B). The MAEC cells were fixed with 4% PFA, and MMP-9 expression was detected using an anti-MMP-9 antibody (1:1000). […] The cores were stained with DAPI.
Likewise, to ascertain if AP-9 peptide inhibited EMMPRIN-induced MMP-9 expression, MAEC cells were incubated with 100 μM of DETA-NO to induce EMMPRIN expression. After 3 hours of treatment with DETA-NO, the MAEC cells were incubated overnight with AP-9 peptide (0.08 mg/ml) or with PBS as a control without peptide. MAEC cells without DETA-NO were used as a control. Finally, the MAEC cells were fixed with 4% PFA and MMP-9 expression was detected using an anti-MMP-9 antibody (1:1000).

binding to EMMPRIN (co-localization of signals) [1]: binds specifically
Sequence: YKLPGHHHHYRP (SEQ ID NO: 3) [AP-9 peptide, EMMPRIN antagonist peptide described in the literature]
EMMPRIN-induced MMP-9 expression [2]: inhibition
